Here are results for four molecules from patent publication US20210403538A1 (published 2021).

Sequences and labels used below:
B1: rEBOV-520 LALA (antibody, V domains shown)
VH: QVQLQESGPGLGKPSETLSLSCTVSGASIRGYFWNWIRQPPGKGLEWIGYIHSTGSTNYNPSLKSRVTISVDTSKNQVSLNVNSVTAADTAVYFCARGAWNVATVYYYYGMDVWGQGTLVTVSS
VL: EIVLTQSPGTLSLSPGERATLSCRASQSVSSSYFAWYQQKPGQAPRLLISGTSTRAPGIPDRFSGSGSGTDFTLTISRLEPEDFAVYFCQQYGNSLYTFGQGTKLEIK
B2: rEBOV-542 (antibody, V domains shown)
VH: EVQLVESGGGLVQPGGSLRLSCAASGFTVSNNYMSWVRQAPGKGLEWVSLIYTSVTTYYADSVKGRFTISRDNSKNTLYLQMNSLRAEDTAVYYCARELGNWSYGVSYWGRGTLVTVSS
VL: SYELTQPPSVSVSPGQTARITCSGDALPKQYAYWYQQKPGQAPVLVIYKDSERPSGIPERFSGSSSGTTVTLTISGVQAEDGADYYCQSADGSGTYPVVFGGGTKLTVL
B3: rEBOV-548 (antibody, V domains shown)
VH: QVQVEESGGGVVQPGGSLRLSCAASGFMFSNYGMHWVRQAPGKGLEWMAFIRYDDSKKFYADSVKGRFTISRDNSKNTLYLQMNSLRAEDTALYYCAKELLQVYTSAWGEGHSYYYALDVWGLGTAVTVSS
VL: DIQMTQSPSSVSASVGDRVTITCRASQDISNWLAWYQQKPGKAPELLIYTASILQSGVSSRFSGSGSGTDFTLTISSLQPEDSATYYCQQGKSFPYTFGQGTKLEIK
B4: EBOV-515 (antibody, V domains shown)
VH: QVQLQESGPGLVKPSQTLSLTCTVSGGSINSAGYYWTWIRQHPGKGLEWIGYIDYTGRTYYNPSLESRVIISIDTSKNHFSLRLTSVSAADTAVYYCARESSWVSELGRDNWGQGTLVTVSS
VL: EIVMTQSPATLPVSPGEGATLSCRASQSVFTNLAWYQQKPGQAPRLLIYDASTRATGIPARFSGSGSGTEFTLTISSLQSEDFAVYYCQQYNNWPRTYGQGTRVEVK

The first assay addresses T1, EBOV GP [change] (Zaire ebolavirus (EBOV), strain Makona). As to the kind of experiment: ELISA. Background: ELISA stands for enzyme-linked immunosorbent assay.
Turning to B1, the EC50 amounted to 18 ng/mL.

Molecule B2 yielded an EC50 of 11 ng/mL.

As to B3, a half-maximal effect (EC50) was put at 6 ng/mL.

The next assay has as its target BDBV GP [change] (Bundibugyo ebolavirus (BDBV), strain …). Briefly: ELISA.
B1 yielded an EC50 of 45 ng/mL.

Regarding B2, it took 8 ng/mL to reach a half-maximal effect (EC50).

As for B3, the EC50 is 7 ng/mL.

The target in the next assay is T1, EBOV GP [change]. As to the kind of experiment: BLI. (In BLI a coated tip is dipped into the sample, and binding shifts an interference pattern.)
B1 registered a Kd of 2.12 nM.

Molecule B2 displayed a Kd of 0.26 nM.

As for B4, the Kd was found to be 0.53 nM.

In turn, B3 returned a Kd of 0.041 nM.

One may read the EC50 as the concentration needed to bring the measured effect to its halfway point. For orientation: Kd means the equilibrium constant for the complex coming apart. A lower Kd goes with tighter binding.
